The target in experiment [1] is T1, SARS-CoV-2 spike on intact virus (SARS-CoV-2/human/AUS/VIC01/2020) (SARS-CoV-2, isolate human/AUS/VIC01/2020).
T1 construct: also called intact SARS-CoV-2; virions; source: virus grown in Vero cells, supernatant; captured on plates by mAb31
Kind of experiment: ELISA; whole virus ELISA: SARS-CoV-2 virus captured on plates coated with mouse anti-spike mAb31, serial dilutions of IgG or Fab, ALP anti-human IgG (Fab-specific); Kd = concentration at half-maximal binding by nonlinear regression. The conditions noted are these: one partner purified. Background: An ELISA detects its analyte on a solid surface through an enzyme-linked reagent.

In experiment [2] the target is His-tagged SARS-CoV-2 RBD (Severe acute respiratory syndrome …, UniProt P0DTC2). Kind of experiment: BLI. The conditions noted are these: both partners purified.

B1: mAb 316 (IgG) (antibody, V domains shown)
VH: not shown
VL: QAVLTQPPSASGSPGQSVTISCTGTSSDVGGYNYVSWYQQHPGKAPKLMIYEVSKRPSGVPDRFSGSKSGNTASLTVSGLQAEDEADYYCSSYAGSNHWVFGGGTKLTVL
notes: IgG1
As to B1, the dissociation constant Kd (usually the equilibrium constant for the complex coming apart) in experiment [1] is 0.13 nM.

B2: mAb 159 (IgG) (antibody, V domains shown)
VH: EVQLVESGGGVVQPGRSLRLSCAASGFTFSSYGMHWVRQAPGKGLEWVALISYDGGNRYYADSVKGRFTISRDNSKNTLYLQMNRLRAEDTAMYYCAKDRDDGWDWYYFMDVWGKGTTVTVSS
VL: DIQLTQSPGTLSLSPGERATLSCRASQSISGNYLAWYQHKPGQAPRLLIYGASTRATGIPDRFSGSGSGTDFTLTISRLEPEDFAVYYCQQYGSSYTFGQGTKVEIK
notes: IgG1; also called 159 (anti-spike); IgG159
Take B2: in experiment [1], the Kd is 0.19 nM.

B3: Fab 159 (Fab, V domains shown)
VH: B2 VH
VL: B2 VL
notes: also called 159 Fab
For the molecule B3, in experiment [1], the dissociation constant (Kd) came out at 0.29 nM.

B4: Fab 45 (Fab, V domains shown)
VH: QVQLVESGGGVVQPGRSLRLSCAASGFTFSTYAMHWVRQAPGKGLEWVAVLSYDGSNKYYADSVKGRFTISRDNSKNTLYLQMNSLRAEDTAVYYCAKGGSYAYYYYMDVWGKGTTVTVSS
VL: not shown
On to B4, for which, in experiment [2], the Kd came to 5.9 nM; the koff (as a rule, the rate constant with which the complex falls apart) was found to be 0.00046 s⁻¹; the kon (as a rule, the rate constant with which the complex forms) is 78000 M⁻¹ s⁻¹.

B5: mAb 150 (IgG) (antibody, V domains shown)
VH: QVQLVESGGGLIQPGGSLRLSCAASGVTVSSNYMSWVRQAPGKGLEWVSIIYSGGTTYYADSVKGRFTISRDSSMNTLYLQMNSLRAEDTAVYYCARDLMVYGIDVWGQGTTVTVSS
VL: EIVMTQSPSSLSASVGDRVTITCRASQGISSYLAWYQQKPGKAPKLLIYAASTLQSGVPSRFSGSGSGTDFTLTISSLQPEDFATYYCQQLDSYPPGYTFGQGTKVDIK
notes: IgG1
With B5, the Kd in experiment [1] was 0.24 nM.

B6: Fab 269 (Fab, V domains shown)
VH: QVQLVESGGGLIQPGGSLRLSCAASGLTVNRNYMSWIRQAPGKGLEWVSVIYSGGSTFYADSVKGRFTISRDNSKNTLSLQMNSLRAEDTAIYYCARDFYEGSFDIWGQGTMVTVSS
VL: AIQLTQSPSFLSASIGDRVTITCRASQGISSYLAWYQQKPGKAPKLLIYAASTLQSGVPSRFSGSGSGTEFTLTISSLQPEDFASYYCQQLNSYPAPVFGPGTKVDIK
In experiment [2], B6 registered a Kd of 2.2 nM, an off-rate constant (koff) of 0.00039 s⁻¹ and a kon of 180000 M⁻¹ s⁻¹.

B7: mAb 158 (IgG) (antibody, V domains shown)
VH: EVQLLESGGDLIQPGGSLRLSCAASGVTVSSNYMSWVRQAPGKGLEWVSIIYPGGSTFYADSVKGRFTISRDNSKNTLYLQMHSLRAEDTAVYYCARDLGSGDMDVWGKGTTVTVSS
VL: DIVMTQSPSFLSASVGDRVTITCRASQGISSYLAWYQQKPGKAPKLLIQAASTLQSGVPSRFSGSGSGTEFTLTISSLQPEDFATYYCQQLNSYRYTFGQGTKVEIK
notes: IgG1
In the case of B7, the equilibrium dissociation constant (Kd) in experiment [1] turned out to be 0.5 nM.

B8: mAb 88 (IgG) (antibody, V domains shown)
VH: QLQLQESGPGLVKPSQTLSLTCTVSGGSISSGSYNWTWIRQPAGKGLEWIGRIYNSGSTNYNPSLKSRVTISVDTSKNQLSLKVRSVTAADTAVYYCARHCSGGTCYPKYYYGMDVWGQGTTVTVSS
VL: QSALTQPPSVSEAPRQRVTISCSGSSSNIGNNAVNWYQQFPGKAPKLLIYYDDLLPSGVSDRFSGSKSGTSASLAISGVQSEDEADYYCAAWDDSLNVVVFGGGTKLTVL
notes: IgG1
The molecule B8 gave a Kd in experiment [1] of 0.25 nM.

B9: mAb 40 (IgG) (antibody, V domains shown)
VH: QVQLVESGGGLVQPGGSLRLSCAVSGFTVSRNYMSWVRQAPGKGLEWVSLIYSGGSTFYADSVKGRFTISRDNSKNTLYLQMNSLRAEDTAVYYCARDLFHRSGYHDYWGQGTLVTVSS
VL: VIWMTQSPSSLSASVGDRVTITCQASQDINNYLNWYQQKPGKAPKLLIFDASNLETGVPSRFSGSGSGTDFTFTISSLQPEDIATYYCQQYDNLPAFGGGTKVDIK
notes: IgG1
In experiment [1], B9 had an equilibrium dissociation constant (Kd) of 0.33 nM.

The values are drawn from paper PMC7891125 (Cell, 2021).
